doi:10.1101/2022.06.09.495453

Molecular target: SHLD2^1-95 (human)
Experiment: SEC-MALS

Sequence of REV7 of the SHLD3-SHLD2^1-95-REV7 ternary complex (Shieldin) (Q9UI95 whole entry, one chain of several): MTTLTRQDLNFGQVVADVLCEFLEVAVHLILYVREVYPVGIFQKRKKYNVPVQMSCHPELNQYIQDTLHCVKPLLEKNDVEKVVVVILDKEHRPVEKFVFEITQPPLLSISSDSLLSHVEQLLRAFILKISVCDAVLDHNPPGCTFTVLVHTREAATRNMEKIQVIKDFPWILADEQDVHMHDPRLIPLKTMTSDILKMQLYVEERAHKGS

stoichiometry N (REV7 per SHLD2^1-95): 2
Substance: REV7 of the SHLD3-SHLD2^1-95-REV7 ternary complex (Shieldin) (from UniProt Q9UI95 1-211) (natural protein)
